From the supplement of paper PMC10724198
± gives the standard deviation of the averaged measurements.

These sequences were tested on Saccharomyces cerevisiae (assay: protein stability index of tFT-peptide fusion (C-terminal peptide) (PSI (0-1 scale)); higher = more stable (slower turnover)). Conditions: genetic background: wild type; temperature: 37 C.
Description: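 MPS profiling in S. cerevisiae of the tFT-X12 degron library: putative degron peptides plus stable controls, 12 aa, fused to the C-terminus of a sfGFP-mCherry timer. Cells are FACS-sorted into 8 mCherry/sfGFP bins and deep-sequenced. PSI runs from 0 (unstable) to 1 (stable). Backgrounds are wild type, das1Δ and doa10Δ at 30 °C, and wild type, das1Δ, cdc34-1 and cdc53-1 at 37 °C; 2-3 technical replicates each.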
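Further: PSI is a weighted mean of sequencing reads over stability bins, variants kept only with over 10 reads, mCherry proximal and sfGFP distal, peptide attached via GGGS linker.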

Going from KNGNVEILIKCT to KRNLLYNIIVWI, the protein stability index falls from 0.58 ± 0.018 to 0.288 ± 0.0061.

Compared with KTSVLLCVSTSF, LAINVRRELLFF is lower in protein stability index: 0.628 ± 0.015 for the first, 0.235 ± 0.007 for the second.

LARRASCFWVRC and LAVVCIHAVSSF are within error of each other in protein stability index: 0.559 ± 0.011 for the first, 0.518 ± 0.038 for the second.

First: LCAFLKLFILII
Second: LCARVCITFNIV
The protein stability index of the first is lower: 0.23 ± 0.034 for the first, 0.481 ± 0.014 for the second.

Compared with LCWLVHFFLWVS, LESYGLRDSTSG is higher in protein stability index: 0.393 ± 0.0092 for the first, 0.69 ± 0.018 for the second.

Going from LFCVCFYGRIFL to LFFCYRVFLLVF, the protein stability index falls from 0.5 ± 0.011 to 0.1719 ± 0.00093.

LFFGFFLIYFLG and LFFVVFFLLFLL are within error of each other in protein stability index: 0.424 ± 0.032 for the first, 0.453 ± 0.026 for the second.

Going from LFFWFMYLRRLI to LFHSFFLYCLMS, the protein stability index rises from 0.164 ± 0.0084 to 0.6 ± 0.045.

Going from LFIFYCFFFLVR to LFLEVCFFRLYF, the protein stability index rises from 0.3824 ± 0.002 to 0.5086 ± 0.0018.

Compared with LFLLFLCLSSLF, LFLLSVNLLLGY is lower in protein stability index: 0.5205 ± 0.0021 for the first, 0.163 ± 0.0081 for the second.

Going from LFLPFLPTLALL to LFLYDFIALRCS, the protein stability index falls from 0.7359 ± 0.0023 to 0.413 ± 0.012.

Going from LFRGVWYYFLVR to LFSSFFVFRLLV, the protein stability index falls from 0.586 ± 0.019 to 0.0847 ± 0.0039.

Going from LFVFVLAGFCCV to LFVPVFSFGFVC, the protein stability index falls from 0.432 ± 0.041 to 0.237 ± 0.015.

First: LFWWCMVFISLI
Second: LFYVCPFVCFLC
The protein stability index of the first is lower: 0.3395 ± 0.00099 for the first, 0.438 ± 0.033 for the second.

First: LGFFPSPVLCVF
Second: LGGVGTLVHCFV
The protein stability index of the first is lower: 0.175 ± 0.0038 for the first, 0.597 ± 0.02 for the second.

Compared with LGRYHPWLLFLC, LHSDHLRIILRI is higher in protein stability index: 0.104 ± 0.0076 for the first, 0.576 ± 0.022 for the second.

Going from LIAGTRRIPLFI to LISGVCLRVKVG, the protein stability index falls from 0.466 ± 0.015 to 0.3637 ± 0.0019.

First: LKFSLLLPVQVI
Second: LLGHLFTMLVIY
The protein stability index of the first is higher: 0.337 ± 0.0053 for the first, 0.311 ± 0.012 for the second.

Compared with LLLLRCLWISHA, LLPLLFFFLCLP is higher in protein stability index: 0.258 ± 0.0082 for the first, 0.529 ± 0.014 for the second.

Going from LLPSPLLLYSLS to LLRLCGFPLGVG, the protein stability index falls from 0.562 ± 0.015 to 0.51 ± 0.017.

LLRLPLLALLFV and LLSAFPYLPVFA are within error of each other in protein stability index: 0.324 ± 0.016 for the first, 0.373 ± 0.044 for the second.

Going from LLVRSFIFPLVY to LLVVGPVRLVVH, the protein stability index falls from 0.441 ± 0.012 to 0.321 ± 0.012.

First: LLYPSKFCITAI
Second: LLYYMPELLILT
The protein stability index of the first is higher: 0.431 ± 0.0044 for the first, 0.264 ± 0.007 for the second.

Going from LMLIPRLLVGAH to LPFFSFSPWWFY, the protein stability index rises from 0.2523 ± 0.0011 to 0.497 ± 0.018.

First: LPIFWVWFSVFR
Second: LPLHPHRSRYLV
The protein stability index of the first is higher: 0.3973 ± 0.0026 for the first, 0.203 ± 0.02 for the second.

Compared with LPPPTPRSVLLN, LPSPPSSPPLRP is higher in protein stability index: 0.5546 ± 0.0016 for the first, 0.701 ± 0.039 for the second.

Compared with LPSRWVPLPTPA, LPTLDCPLHRLF is higher in protein stability index: 0.56219 ± 0.00016 for the first, 0.733 ± 0.016 for the second.

LQCVYFVFFICF and LQVPTLRLFVFF are within error of each other in protein stability index: 0.37 ± 0.032 for the first, 0.398 ± 0.026 for the second.

Going from LRMSLLVFLLFA to LRQKIIYWWLWL, the protein stability index falls from 0.399 ± 0.0072 to 0.3523 ± 0.001.

First: LRVLSVVRLSVW
Second: LSARVFCFWFFS
The protein stability index of the first is higher: 0.54567 ± 0.00028 for the first, 0.2852 ± 0.0022 for the second.

Compared with LSFLCFSTVLHC, LSFLFFRLCSFF is lower in protein stability index: 0.54302 ± 0.00015 for the first, 0.184 ± 0.04 for the second.

LSLLCFVASVVA and LSLVIFIFLYCR are within error of each other in protein stability index: 0.224 ± 0.013 for the first, 0.205 ± 0.027 for the second.

Compared with LSLWPIFGIIYC, LSPPPLSFPFSA is higher in protein stability index: 0.513 ± 0.019 for the first, 0.7118 ± 0.0069 for the second.

LSVVVLVLCVLL and LVGYCGAWACVV are within error of each other in protein stability index: 0.428 ± 0.082 for the first, 0.501 ± 0.025 for the second.

Going from LVLCCGFWFRAV to LVLGVEVCFVLG, the protein stability index falls from 0.501 ± 0.02 to 0.246 ± 0.022.

Compared with LVPYLWWLVFAL, LVVFGLVLSLLL is higher in protein stability index: 0.24 ± 0.026 for the first, 0.495 ± 0.03 for the second.

Going from LVVWASLVRVEG to LVWDLFRCFSML, the protein stability index falls from 0.389 ± 0.0079 to 0.351 ± 0.029.

First: LVWSGLIVVVGG
Second: LWAVGVATDWGG
The protein stability index of the first is lower: 0.269 ± 0.012 for the first, 0.7513 ± 0.0075 for the second.

Going from LWERRSRQLTMF to LWGLVGVCLVLC, the protein stability index falls from 0.33 ± 0.026 to 0.134 ± 0.011.

The sequences below were run on Saccharomyces cerevisiae in the same assay as above. Conditions: genetic background: wild type; temperature: 30 C.

First: KNGNVEILIKCT
Second: KRNLLYNIIVWI
The protein stability index of the first is higher: 0.4881 ± 0.0027 for the first, 0.299 ± 0.046 for the second.

Compared with KTSVLLCVSTSF, LAINVRRELLFF is lower in protein stability index: 0.441 ± 0.019 for the first, 0.235 ± 0.043 for the second.

LARRASCFWVRC and LAVVCIHAVSSF are within error of each other in protein stability index: 0.452 ± 0.0072 for the first, 0.418 ± 0.077 for the second.

First: LCAFLKLFILII
Second: LCARVCITFNIV
The protein stability index of the first is lower: 0.239 ± 0.016 for the first, 0.457 ± 0.016 for the second.

Going from LCWLVHFFLWVS to LESYGLRDSTSG, the protein stability index rises from 0.288 ± 0.018 to 0.621 ± 0.27.

Going from LFCVCFYGRIFL to LFFCYRVFLLVF, the protein stability index falls from 0.423 ± 0.0066 to 0.185 ± 0.019.

LFFGFFLIYFLG and LFFVVFFLLFLL are within error of each other in protein stability index: 0.353 ± 0.044 for the first, 0.411 ± 0.025 for the second.

Compared with LFFWFMYLRRLI, LFHSFFLYCLMS is higher in protein stability index: 0.172 ± 0.033 for the first, 0.482 ± 0.015 for the second.

Compared with LFIFYCFFFLVR, LFLEVCFFRLYF is higher in protein stability index: 0.352 ± 0.051 for the first, 0.465 ± 0.032 for the second.

Compared with LFLLFLCLSSLF, LFLLSVNLLLGY is lower in protein stability index: 0.435 ± 0.021 for the first, 0.237 ± 0.065 for the second.

Going from LFLPFLPTLALL to LFLYDFIALRCS, the protein stability index rises from 0.231 ± 0.012 to 0.415 ± 0.038.

Going from LFRGVWYYFLVR to LFSSFFVFRLLV, the protein stability index falls from 0.507 ± 0.028 to 0.146 ± 0.011.

First: LFVFVLAGFCCV
Second: LFVPVFSFGFVC
The protein stability index of the first is higher: 0.381 ± 0.0073 for the first, 0.226 ± 0.011 for the second.

LFWWCMVFISLI and LFYVCPFVCFLC are within error of each other in protein stability index: 0.3 ± 0.019 for the first, 0.324 ± 0.058 for the second.

Compared with LGFFPSPVLCVF, LGGVGTLVHCFV is higher in protein stability index: 0.275 ± 0.02 for the first, 0.452 ± 0.053 for the second.

Going from LGRYHPWLLFLC to LHSDHLRIILRI, the protein stability index rises from 0.114 ± 0.027 to 0.514 ± 0.023.

LIAGTRRIPLFI and LISGVCLRVKVG are within error of each other in protein stability index: 0.406 ± 0.039 for the first, 0.346 ± 0.046 for the second.

Compared with LKFSLLLPVQVI, LLGHLFTMLVIY is lower in protein stability index: 0.3606 ± 0.0013 for the first, 0.308 ± 0.014 for the second.

First: LLLLRCLWISHA
Second: LLPLLFFFLCLP
The protein stability index of the first is lower: 0.244 ± 0.015 for the first, 0.4989 ± 0.0038 for the second.

LLPSPLLLYSLS and LLRLCGFPLGVG are within error of each other in protein stability index: 0.451 ± 0.028 for the first, 0.4497 ± 0.00073 for the second.

Compared with LLRLPLLALLFV, LLSAFPYLPVFA is higher in protein stability index: 0.111 ± 0.0047 for the first, 0.337 ± 0.0066 for the second.

Going from LLVRSFIFPLVY to LLVVGPVRLVVH, the protein stability index falls from 0.367 ± 0.034 to 0.262 ± 0.023.

First: LLYPSKFCITAI
Second: LLYYMPELLILT
The protein stability index of the first is higher: 0.374 ± 0.016 for the first, 0.28 ± 0.018 for the second.

LMLIPRLLVGAH and LPFFSFSPWWFY are within error of each other in protein stability index: 0.291 ± 0.014 for the first, 0.262 ± 0.033 for the second.

Going from LPIFWVWFSVFR to LPLHPHRSRYLV, the protein stability index falls from 0.349 ± 0.0062 to 0.21 ± 0.021.

LPPPTPRSVLLN and LPSPPSSPPLRP are within error of each other in protein stability index: 0.51 ± 0.076 for the first, 0.508 ± 0.019 for the second.

LPSRWVPLPTPA and LPTLDCPLHRLF are within error of each other in protein stability index: 0.508 ± 0.016 for the first, 0.559 ± 0.084 for the second.

Compared with LQCVYFVFFICF, LQVPTLRLFVFF is lower in protein stability index: 0.399 ± 0.051 for the first, 0.3 ± 0.0049 for the second.

LRMSLLVFLLFA and LRQKIIYWWLWL are within error of each other in protein stability index: 0.314 ± 0.054 for the first, 0.313 ± 0.0047 for the second.

Going from LRVLSVVRLSVW to LSARVFCFWFFS, the protein stability index falls from 0.468 ± 0.055 to 0.31 ± 0.024.

Compared with LSFLCFSTVLHC, LSFLFFRLCSFF is lower in protein stability index: 0.503 ± 0.073 for the first, 0.203 ± 0.061 for the second.

LSLLCFVASVVA and LSLVIFIFLYCR are within error of each other in protein stability index: 0.275 ± 0.016 for the first, 0.227 ± 0.053 for the second.

Going from LSLWPIFGIIYC to LSPPPLSFPFSA, the protein stability index falls from 0.4508 ± 0.0019 to 0.136 ± 0.021.

LSVVVLVLCVLL and LVGYCGAWACVV are within error of each other in protein stability index: 0.353 ± 0.033 for the first, 0.4 ± 0.036 for the second.

Compared with LVLCCGFWFRAV, LVLGVEVCFVLG is lower in protein stability index: 0.381 ± 0.025 for the first, 0.273 ± 0.015 for the second.

First: LVPYLWWLVFAL
Second: LVVFGLVLSLLL
The protein stability index of the first is lower: 0.274 ± 0.027 for the first, 0.469 ± 0.025 for the second.

First: LVVWASLVRVEG
Second: LVWDLFRCFSML
The protein stability index of the first is higher: 0.33 ± 0.032 for the first, 0.242 ± 0.026 for the second.

First: LVWSGLIVVVGG
Second: LWAVGVATDWGG
The protein stability index of the first is lower: 0.3 ± 0.042 for the first, 0.734 ± 0.022 for the second.

Going from LWERRSRQLTMF to LWGLVGVCLVLC, the protein stability index falls from 0.263 ± 0.013 to 0.169 ± 0.0084.
